Test results: patent publication US20040091887

T1: bovine fibrinogen, P02672
T1 chain 1: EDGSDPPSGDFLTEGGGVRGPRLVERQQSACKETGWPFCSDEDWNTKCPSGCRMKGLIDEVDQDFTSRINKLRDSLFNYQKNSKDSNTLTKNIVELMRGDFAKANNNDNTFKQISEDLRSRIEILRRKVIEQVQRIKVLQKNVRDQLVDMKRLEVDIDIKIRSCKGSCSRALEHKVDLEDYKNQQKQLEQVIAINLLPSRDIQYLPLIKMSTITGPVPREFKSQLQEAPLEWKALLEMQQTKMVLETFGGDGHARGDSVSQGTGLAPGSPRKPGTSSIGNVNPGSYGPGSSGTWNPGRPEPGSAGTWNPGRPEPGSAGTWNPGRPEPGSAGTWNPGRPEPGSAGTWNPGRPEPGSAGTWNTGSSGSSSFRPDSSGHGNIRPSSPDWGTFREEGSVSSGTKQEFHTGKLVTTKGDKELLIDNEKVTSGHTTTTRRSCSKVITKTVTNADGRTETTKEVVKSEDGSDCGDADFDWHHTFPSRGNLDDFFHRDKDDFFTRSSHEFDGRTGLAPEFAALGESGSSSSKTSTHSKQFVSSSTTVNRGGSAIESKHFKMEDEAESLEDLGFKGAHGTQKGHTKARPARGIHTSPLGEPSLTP
T1 chain 2: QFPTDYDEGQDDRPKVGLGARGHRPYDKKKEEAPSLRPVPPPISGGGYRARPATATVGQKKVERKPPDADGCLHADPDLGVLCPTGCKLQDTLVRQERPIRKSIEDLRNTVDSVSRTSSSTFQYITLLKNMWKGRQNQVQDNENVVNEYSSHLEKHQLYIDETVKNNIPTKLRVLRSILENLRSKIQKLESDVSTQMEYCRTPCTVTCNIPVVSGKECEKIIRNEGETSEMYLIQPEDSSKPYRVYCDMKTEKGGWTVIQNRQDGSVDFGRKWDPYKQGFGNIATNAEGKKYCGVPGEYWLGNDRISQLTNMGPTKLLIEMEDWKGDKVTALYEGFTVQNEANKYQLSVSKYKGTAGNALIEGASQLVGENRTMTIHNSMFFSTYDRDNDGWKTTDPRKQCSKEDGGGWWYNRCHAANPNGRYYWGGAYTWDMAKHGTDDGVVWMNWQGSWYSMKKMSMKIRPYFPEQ
T1 chain 3: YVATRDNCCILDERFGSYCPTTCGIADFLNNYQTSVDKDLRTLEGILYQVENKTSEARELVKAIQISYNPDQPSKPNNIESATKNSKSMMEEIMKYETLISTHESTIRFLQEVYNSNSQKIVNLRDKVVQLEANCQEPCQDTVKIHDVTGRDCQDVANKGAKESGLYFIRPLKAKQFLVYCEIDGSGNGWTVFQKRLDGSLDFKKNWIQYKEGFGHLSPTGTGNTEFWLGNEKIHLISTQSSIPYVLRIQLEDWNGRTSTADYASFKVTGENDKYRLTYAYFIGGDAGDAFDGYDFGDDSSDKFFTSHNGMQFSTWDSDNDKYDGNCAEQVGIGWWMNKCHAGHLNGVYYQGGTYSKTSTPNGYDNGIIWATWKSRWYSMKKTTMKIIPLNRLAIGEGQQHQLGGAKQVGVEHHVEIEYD


Molecular target: T1, bovine fibrinogen, P02672

Protein	dose-dependent fibrinogenolytic assay in vitro: amount for complete digestion of the A alpha chain	dose-dependent fibrinogenolytic assay in vitro: amount for complete digestion of the B beta chain	dose-dependent fibrinogenolytic assay in vitro: amount for complete digestion of the gamma chain	time-dependent fibrinogenolytic assay in vitro: time to complete digestion of the A alpha chain	time-dependent fibrinogenolytic assay in vitro: time to complete digestion of the B beta chain	time-dependent fibrinogenolytic assay in vitro: time to complete digestion of the gamma chain	fibrinogenolytic assay, cleavage pattern on 10% SDS-PAGE: cleavage of the gamma chain	fibrinogenolytic assay, cleavage pattern on 10% SDS-PAGE: start of digestion of the B beta chain	fibrinogenolytic assay, cleavage pattern on 10% SDS-PAGE: time to complete digestion of the A alpha chain	fibrinogenolytic assay, cleavage pattern on 10% SDS-PAGE: time to complete digestion of the B beta chain
recombinant fibrinlysin protein (protein) EQQRFPQRYIKLAIVVDHGMYTKYSSNFKKIRKRVHQMVSNINEMCRPLNIAITLALLDVWSEKDFITVQADAPTTAGLFGDWRERVLLKKKNHDHAQLLTDTNFARNTIGWAYVGRMCDEKYSVAVVKDHSSKVFMVAVTMTHELGHNLGMEHDDKDKCKCDTCIMSAVISDKQSKLFSDCSKDYYQTFLTNDNPQCILNAP	the Aα-chain of fibrinogen was completely digested with 4 µg of the refolded protein	The Bβ-chain was completely digested with 7 µg of the refolded protein	The γ-chain also was completely digested with 21 µg of the refolded protein	the Aα-chain of fibrinogen was completely digested at 5 hr after incubation	The Bβ-chain was completely digested after 7 hrs	the γ-chain was completely digested after 30 hrs				
Mucroslysin recombinant fusion protein (protein) SSIILESGNVNDYEVVYPRKVSALPKGAVQPKYEDAMQYEFKVNGEAVVLHLEKNKGLFSEDYSETHYSPDGREITTYPSVEDHCYYHGRIHNDADSTASISACDGLKGYFKLQGETYPIEPLELSDSEAHAVFKYENVEKEDEAPKMCGVTQNWESDESIKKASQLYLTPEQQRFPQRYIKLAIVVDHGMYTKYSSNFKKIRKRVHQMVSNINEMCRPLNIAITLALLDVWSEKDFITVQADAPTTAGLFGDWRERVLLKKKNHDHAQLLTDTNFARNTIGWAYVGRMCDEKYSVAVVKDHSSKVFMVAVTMTHELGHNLGMEHDDKDKCKCDTCIMSAVISDKQSKLFSDCSKDYYQTFLTNDNPQCILNAPLRTDTVSTPVSGNEFLEAGEECDCGSPENPCCDAATCKLRPGAQCAEGLCCDQCRFKKKRTICRRARGDNPDDRCTGQSADCPRNGLYG							Mucroslysin protein also exhibited the ability to cleave the γ-chain of fibrinogen	the digestion of the Bβ-chain began at 18 hr	The Aα-chain of fibrinogen was completely digested at 18 hr after incubation	The Bβ-chain was completely digested after 36 hrs
